One molecule from patent US7482146B1, “Phenylethanolamine-N-methyltransferase sequence variants” (Mayo Foundation for Medical Education and Research, priority 2003, dated 2009) can be followed below.

Read-outs that look alike come from different tables or passages of the source.

Series [1] concerns PNMT. The series can be described thus: PNMT enzyme activity assay of recombinant allozymes (14C-SAM methylation of octopamine). The series is classed as biochemical, human. To be noted: recombinant allozyme in COS-1 cell homogenate; 65.9 μM octopamine, 24.22 μM 14C-SAM; corrected for transfection efficiency. From the text:
Recombinant PNMT Expression Constructs and Allozyme Expression: PNMT cDNA sequences for the three non-synonymous cSNPs that were observed during the resequencing experiments were created using the QuickChange Site-Directed Mutagenesis kit (Stratagene, La Jolla, Calif.), using the wild type PNMT cDNA open reading frame (ORF) in the pUni/V5-His-TOPO (pUni) vector (Invitrogen) as template. Specifically, the full-length wild type ORF (GenBank accession number J03727) was amplified using human brain Marathon-Ready cDNA (Clontech) as template. The resultant PNMT cDNA was subcloned into pUni, a vector that is only 2.3 kilobases in length, so it is well suited for performing “circular PCR” during site-directed mutagenesis. […]
PNMT Enzyme Activity: PNMT activity was measured using a method based on that of Molnicoff et al. (1971) J. Pharmacol. Exp. Ther. 178(3):425-431. […] “Blank” samples included the same quantity of COS-115,000×g supernatant from cells that were transfected with “empty” pCR3.1 expression vector, making it possible to correct for endogenous activity. Reaction mixtures were incubated at 37° C. for 30 minutes, and reactions were stopped with 500 μl Borate Buffer (pH 10). ^14C-N-methyl-octopamine was extracted into toluene containing 20% isoamyl alcohol, and radioactivity of the extracted ^14C-N-methyl-octopamine was measured in a liquid scintillation counter. […]

Series [2] has as its system PNMT. Kind of series: Substrate kinetics: apparent Km values of recombinant PNMT allozymes for octopamine and SAM. The series is classed as biochemical, human. Conditions: recombinant allozyme from COS-1 cells. As to the method:
Expression constructs for the wild type and variant PNMT sequences were transfected into COS-1 cells using the TransFast™ reagent (Promega), with a 1:1 charge ratio. pSV-β-Galactosidase (Promega) was co-transfected as an internal control to make it possible to correct for transfection efficiency. The COS-1 cells were harvested after 48 hours and were homogenized with a Polytron homogenizer (Brinkmann Instruments, Westbury, N.Y.) in 25 mM potassium phosphate buffer, pH 7.8 that contained 1 mM dithiothreitol (DTT) and 1 mM EDTA. Cell homogenates were centrifuged at 15,000×g for 15 minutes, and the resultant supernatant preparations were used for enzyme assays and substrate kinetic studies.
Estimating Apparent Km Values: To estimate apparent Km values of PNMT for the octopamine substrate, a series of octopamine and SAM concentrations were tested with the recombinant allozymes. Blanks for each substrate concentration were included by assaying COS-1 cell cytosol after transfection with empty […] vector. […] Apparent Km values were calculated using the method of Wilkinson with a computer program written by Cleland. Wilkinson supra; and Cleland supra.

B1: WT: recombinant wild type (reference) human PNMT polypeptide, SEQ ID NO:8, expressed in COS-1 cells (protein)
chain: MSGADRSPNAGAAPDSAPGQAAVASAYQRFEPRAYLRNNYAPPRGDLCNPNGVGPWKLRCLAQTFATGEVSGRTLIDIGSGPTVYQLLSACSHFEDITMTDFLEVNRQELGRWLQEEPGAFNWSMYSQHACLIEGKGECWQDKERQLRARVKRVLPIDVHQPQPLGAGSPAPLPADALVSAFCLEAVSPDLASFQRALDHITTLLRPGGHLLLIGALEESWYLAGEARLTVVPVSEEEVREALVRSGYKVRDLRTYIMPAHLQTGVDDVKGVFFAWAQKVGL
modifications: Homo sapien
On to B1, for which the “% WT Enzyme activity” value with PNMT [1] was 100 % WT. The Km came out at 6.6 µM in the series on PNMT [2] (substrate SAM, read-out: Apparent Km (SAM)); 13.6 µM in the series with PNMT [2] (substrate octopamine, listed as WT PNMT protein, read-out: Apparent Km (octopamine)); 23.5 ± 3.1 µM with PNMT [2] (substrate octopamine, read-out: Apparent Km (octopamine)).

Broadly, the Km is the concentration of substrate that gives half-maximal velocity.
